B1: heavy chain-light chain homodimer of the BEAT antibody displayed on the cell membrane of CHO-S cells via the M1M2 transmembrane region (pHC-M1M2 + pLC) (antibody)
heavy: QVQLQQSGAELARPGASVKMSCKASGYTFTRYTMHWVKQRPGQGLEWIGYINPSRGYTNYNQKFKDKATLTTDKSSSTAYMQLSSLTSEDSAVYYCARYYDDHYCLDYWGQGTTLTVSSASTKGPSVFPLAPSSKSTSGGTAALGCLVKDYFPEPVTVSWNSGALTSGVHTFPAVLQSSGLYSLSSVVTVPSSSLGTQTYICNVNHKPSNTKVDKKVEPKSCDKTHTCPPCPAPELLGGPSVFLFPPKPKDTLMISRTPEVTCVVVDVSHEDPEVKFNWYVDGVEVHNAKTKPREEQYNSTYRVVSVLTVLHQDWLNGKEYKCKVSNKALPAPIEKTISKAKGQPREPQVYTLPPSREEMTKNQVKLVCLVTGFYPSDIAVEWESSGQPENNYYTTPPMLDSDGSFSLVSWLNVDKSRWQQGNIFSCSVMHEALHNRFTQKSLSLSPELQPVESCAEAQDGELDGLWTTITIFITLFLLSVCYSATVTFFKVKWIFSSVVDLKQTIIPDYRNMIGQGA
light: QIVLTQSPAIMSASPGEKVTMTCSASSSVSYMNWYQQKSGTSPKRWIYDTSKLASGVPAHFRGSGSGTSYSLTISGMEAEDAATYYCQQWSSNPFTFGSGTKLEINRTVAAPSVFIFPPSDEQLKSGTASVVCLLNNFYPREAKVQWKVDNALQSGNSQESVTEQDSKDSTYSLSSTLTLSKADYEKHKVYACEVTHQGLSSPVTKSFNRGEC
notes: also called Fab-DIM; Fab homodimer
B2: secreted heavy chain-light chain homodimer of the BEAT antibody (antibody)
heavy: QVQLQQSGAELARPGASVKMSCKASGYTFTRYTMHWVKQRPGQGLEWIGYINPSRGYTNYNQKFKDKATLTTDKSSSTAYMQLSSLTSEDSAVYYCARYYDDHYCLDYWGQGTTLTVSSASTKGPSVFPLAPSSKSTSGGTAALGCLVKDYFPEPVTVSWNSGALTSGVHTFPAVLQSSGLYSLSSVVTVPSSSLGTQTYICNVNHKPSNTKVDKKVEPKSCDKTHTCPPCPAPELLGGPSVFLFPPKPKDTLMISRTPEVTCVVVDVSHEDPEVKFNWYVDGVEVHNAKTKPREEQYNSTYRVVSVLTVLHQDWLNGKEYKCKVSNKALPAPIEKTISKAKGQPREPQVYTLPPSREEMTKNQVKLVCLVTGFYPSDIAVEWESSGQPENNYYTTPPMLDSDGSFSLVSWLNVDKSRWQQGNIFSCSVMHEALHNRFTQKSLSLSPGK
light: B1 light
notes: as for B1

Columns and labels:
[1] = biological target: T1, Protein A (UniProt P38507 37-477); assay: flow cytometry, FITC-labelled Protein A on CHO-S cells transfected with pHC-M1M2 + pLC
T1 construct: also called Protein A biosensors

[2] = biological target: T1, Protein A; assay: Octet QK, Protein A biosensors, supernatant day 6

| Binder | binding result [1] | binding result [2] |
| --- | --- | --- |
| B1 | no binding |  |
| B2 |  | no binding |
